Results from patent publication US20160347840A1 (Janssen / Centocor, published 2016).

T1: cynomolgus PSMA extracellular domain (PSMW1), 6His and Avi tag (cynomolgus, UniProt Q04609 44-750 (human entry), biotinylated in bead-based selections and the ELISA screen)
T1 construct: Cloned along with a 6His and Avi tag; also called cynomolgus monkey PSMA; pan 230
T1 chain: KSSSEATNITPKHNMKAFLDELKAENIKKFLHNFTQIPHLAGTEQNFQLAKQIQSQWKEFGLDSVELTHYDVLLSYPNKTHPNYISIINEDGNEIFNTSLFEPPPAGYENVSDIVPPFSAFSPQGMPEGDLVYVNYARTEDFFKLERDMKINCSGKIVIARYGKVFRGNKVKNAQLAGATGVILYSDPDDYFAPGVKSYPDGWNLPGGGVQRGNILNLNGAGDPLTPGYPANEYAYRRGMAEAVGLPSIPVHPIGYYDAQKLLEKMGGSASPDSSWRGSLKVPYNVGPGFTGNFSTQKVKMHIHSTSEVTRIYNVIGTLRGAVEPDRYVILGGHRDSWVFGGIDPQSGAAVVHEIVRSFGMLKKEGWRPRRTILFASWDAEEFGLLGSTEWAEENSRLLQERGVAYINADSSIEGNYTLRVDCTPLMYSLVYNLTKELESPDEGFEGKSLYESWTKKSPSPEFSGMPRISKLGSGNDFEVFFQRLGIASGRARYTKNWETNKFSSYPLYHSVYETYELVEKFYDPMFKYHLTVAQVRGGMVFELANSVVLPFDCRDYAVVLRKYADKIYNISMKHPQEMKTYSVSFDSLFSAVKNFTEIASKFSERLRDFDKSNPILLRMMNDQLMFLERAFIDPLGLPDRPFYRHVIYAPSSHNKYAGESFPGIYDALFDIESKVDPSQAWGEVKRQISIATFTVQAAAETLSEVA

T2: chimpanzee PSMA extracellular domain (PSMW8), 6His and Avi tag (chimpanzee, UniProt Q04609 44-750 (human entry), biotinylated in bead-based selections and the ELISA screen)
T2 construct: Cloned along with a 6His and Avi tag; Buffer with ZnCl2 to stabilise PSMA dimerisation; also called pan 229
T2 chain: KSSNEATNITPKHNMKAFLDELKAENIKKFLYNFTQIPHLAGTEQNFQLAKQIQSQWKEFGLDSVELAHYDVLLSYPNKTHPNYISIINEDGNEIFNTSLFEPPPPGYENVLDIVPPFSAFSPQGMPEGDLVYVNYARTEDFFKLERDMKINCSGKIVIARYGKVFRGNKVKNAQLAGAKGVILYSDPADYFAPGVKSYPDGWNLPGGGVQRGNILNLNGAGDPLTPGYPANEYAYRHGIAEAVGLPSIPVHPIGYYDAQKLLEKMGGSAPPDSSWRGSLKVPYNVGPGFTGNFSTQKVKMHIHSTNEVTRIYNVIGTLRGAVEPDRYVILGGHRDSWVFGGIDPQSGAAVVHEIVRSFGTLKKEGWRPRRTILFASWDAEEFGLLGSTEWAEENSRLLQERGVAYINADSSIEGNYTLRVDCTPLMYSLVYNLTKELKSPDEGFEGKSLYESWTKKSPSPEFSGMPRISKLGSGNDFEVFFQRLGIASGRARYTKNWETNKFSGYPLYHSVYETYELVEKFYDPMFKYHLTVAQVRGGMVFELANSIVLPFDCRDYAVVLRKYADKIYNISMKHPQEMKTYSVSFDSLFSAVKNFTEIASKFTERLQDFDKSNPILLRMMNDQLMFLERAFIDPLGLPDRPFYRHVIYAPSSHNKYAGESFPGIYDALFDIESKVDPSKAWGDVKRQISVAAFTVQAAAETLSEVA

B1: P234CR9_H01 (designed binder)
chain: LPAPKNLVVSRVTEDSARLSWEWWVIPGDFDSFLIQYQESEKVGEAIVLTVPGSERSYDLTGLKPGTEYTVSIYGVVNSGQWNDTSNPLSAIFTT
notes: not shown: C-terminal poly-histidine tag
B2: CD3B144 (antibody, human IgG1, V domains shown)
VH: EVQLVESGGGLVQPGGSLRLSCAASGFTFNTYAMNWVRQAPGKGLEWVARIRSKYNNYATYYAASVKGRFTISRDDSKNSLYLQMNSLKTEDTAVYYCARHGNFGNSYVSWFAYWGQGTLVTVSS
VL: QSVLTQPPSVSAAPGQKVTISCRSSTGAVTTSNYANWVQQLPGTAPKGLIGGTNKRAPGIPDRFSGSKSGTSATLGITGLQTGDEADYYCALWYSNLWVFGGGTKLTVL
notes: Humanized SP34 variant; human IgG1 constant region with L234A, L235A, F405L; human lambda constant region; also called CDB144
B3: CD3B152 (antibody, human IgG1, V domains shown)
VH: EVQLLESGGGLVQPGGSLRLSCAASGFTFNTYAMNWVRQAPGKGLEWVARIRSKYNNYATYYADSVKGRFTISRDNSKNTLYLQMNSLRAEDTAVYYCVKHGNFGNSYVSWFAYWGQGTLVTVSS
VL: QSVLTQPPSVSAAPGQKVTISCRSSTGAVTTSNYANWVQQLPGTAPKGLIGGTNKRAPGIPDRFSGSKSGTSATLGITGLQTGDEADYYCALWYSNLWVFGGGTKLTVL
notes: Humanized SP34 variant; human IgG1 constant region with L234A, L235A, F405L; human lambda constant region; also called CDB152
B4: P229CR5P819_H11 (designed binder)
chain: LPAPKNLVVSRVTEDSARLSWDIDEQRDWFDSFLIQYQESEKVGEAIVLTVPGSERSYDLTGLKPGTEYTVSIYGVYHVYRSSNPLSAIFTT
notes: In the cytotoxicity assays it was conjugated to vc-MMAF (cysteine-maleimide chemistry or sortase reaction); also called P229CR9P819-H11; not shown: C-terminal poly-histidine tag
B5: P233FR9P1001_B5-5 (designed binder)
chain: LPAPKNLVVSRVTEDSARLSWTAPDAAFDSFTIGYWEWDDDGEAIVLTVPGSERSYDLTGLKPGTEYPVYIAGVKGGQWSFPLSAIFTT
notes: as for B1
B6: P233FR9P1001_D9 (designed binder)
chain: LPAPKNLVVSRVTEDSARLSWTAPDAAFDSFPIGYWEWDDDGEAIVLTVPGSERSYDLTGLKPGTEYWVYIAGVKGGQWSFPLSAIFTT
notes: as for B1
B7: P233FR9P1001_H3-1 (designed binder)
chain: LPAPKNLVVSRVTEDSARLSWTAPDAAFDSFPIGYWEWDDDGEAIVLTVPGSERSYDLTGLKPGTEYHVYIAGVKGGQWSFPLSAIFTT
notes: as for B1
B8: P258AR6P1070_A05 (designed binder)
chain: LPAPKNLVVSRVTEDSARLSWTIDEQRDWFDSFLIQYQESEKVGEAIVLTVPGSERSYDLTGLKPGTEYTVSIYGVYHVYRSNPLSAIFTT
notes: as for B1
B9: P258AR6P1070_F09 (designed binder)
chain: LPAPKNLVVSRVTEDSARLSWTIDEQRDWFESFLIQYQESEKVGEAIVLTVPGSERSYDLTGLKPGTEYTVSIYGVYHVYRSNPLSAIFTT
notes: as for B1
B10: P258AR6P1071_G03 (designed binder)
chain: LPAPKNLVVSRVTEDSARLSWDIDEQRDWFDSFLIQYQESEKVGEAIVLTVPGSERSYDLTGLKPGTEYTVSIYGVYHVYRSNPLSAIFTT
notes: as for B1
B11: P258AR6P1071_F04 (designed binder)
chain: LPAPKNLVVSRVTEDSARLSWVIDEQRDWFDSFLIQYQESEKVGEAIVLTVPGSERSYDLTGLKPGTEYTVSIYGVYHVYRSNPLSAIFTT
notes: as for B1
B12: P258AR6P1071_D02 (designed binder)
chain: LPAPKNLVVSRVTEDSARLSWAIDEQRDWFESFLIQYQESEKVGEAIVLTVPGSERSYDLTGLKPGTEYTVSIYGVYHVYRSNPLSAIFTT
notes: as for B1
B13: P234CR9_A7 (designed binder)
chain: LPAPKNLVVSRVTEDSARLSWGEQFTIFDSFLIQYQESEKVGEAIVLTVPGSERSYDLTGLKPGTEYTVSIYGASGYEWFHAFGSSNPLSAIFTT
notes: also called P234CR9_A07; not shown: C-terminal poly-histidine tag

What was measured:
[1] = molecular target: T1, cynomolgus PSMA extracellular domain …; assay: hit from CIS-display panning and ELISA screen on PSMA of this species (column Antigen species)
[2] = molecular target: T3, human PSMA on tumor cells (LNCaP, MDA-PCA-2B, VCAP, 22Rv1) (human, UniProt Q04609 1-750); assay: cell-based or functional assay
T3 sequence (Q04609 whole entry): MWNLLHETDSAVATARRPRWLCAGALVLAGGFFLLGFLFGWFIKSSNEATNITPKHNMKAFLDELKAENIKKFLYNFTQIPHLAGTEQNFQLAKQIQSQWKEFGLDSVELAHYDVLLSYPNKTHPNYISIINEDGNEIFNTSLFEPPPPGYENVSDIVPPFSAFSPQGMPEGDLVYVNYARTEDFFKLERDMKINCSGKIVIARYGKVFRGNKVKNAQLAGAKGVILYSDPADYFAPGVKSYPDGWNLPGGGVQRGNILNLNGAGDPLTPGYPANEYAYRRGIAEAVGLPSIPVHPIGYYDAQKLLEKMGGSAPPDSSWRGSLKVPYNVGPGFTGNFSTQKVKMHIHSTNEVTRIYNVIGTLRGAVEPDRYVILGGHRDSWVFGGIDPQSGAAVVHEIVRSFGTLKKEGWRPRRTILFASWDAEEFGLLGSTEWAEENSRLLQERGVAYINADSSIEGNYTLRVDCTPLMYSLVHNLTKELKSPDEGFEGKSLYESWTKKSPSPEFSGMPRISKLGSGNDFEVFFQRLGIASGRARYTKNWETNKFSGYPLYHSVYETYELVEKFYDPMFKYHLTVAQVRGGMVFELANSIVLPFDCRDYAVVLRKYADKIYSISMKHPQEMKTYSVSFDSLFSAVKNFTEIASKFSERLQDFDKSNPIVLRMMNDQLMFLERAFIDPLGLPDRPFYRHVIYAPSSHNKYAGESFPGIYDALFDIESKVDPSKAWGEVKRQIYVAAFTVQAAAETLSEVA

[3] = molecular target: T3, human PSMA on tumor cells (LNCaP, …); assay: cell-based or functional assay; remark: listed apart in the source
[4] = molecular target: T4, cell-surface CD3E on primary human T cells (human, UniProt P07766 23-207); assay: flow cytometry on primary human T cells, anti-human IgG Alexa Fluor 647 secondary
T4 construct: whole, on cells; On the cells CD3E stands in the CD3/T cell receptor complex; also called human CD3
T4 sequence (P07766 23-207): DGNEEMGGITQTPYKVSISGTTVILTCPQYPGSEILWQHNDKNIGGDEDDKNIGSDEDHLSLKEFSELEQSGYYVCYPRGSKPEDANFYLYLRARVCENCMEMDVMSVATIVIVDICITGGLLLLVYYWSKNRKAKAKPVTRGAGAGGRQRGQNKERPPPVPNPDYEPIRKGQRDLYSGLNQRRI
Procedure: The resulting panel of anti-CD3 antibodies was tested for binding against cell-surface CD3E on primary human T cells. To do this, binding of antibodies from expression supernatants was visualized using a polyclonal anti-human secondary antibody and analyzed by flow cytometry. Briefly, binding of anti-CD3 antibodies to cell-surface CD3E was assessed by flow cytometry using primary Human T lymphocytes purified by negative selection (Biological Specialty, Colmar, USA). Expression supernatants or purified antibodies were normalized to 10 μg/ml in media or FACS buffer (BD BioSciences), respectively. 2×10⁵ cells were aliquoted into wells of a 96 well round-bottomed plate (CoStar) for labeling. Antibodies in expression supernatant were added to cells and incubated for 45 min at 4° C. Following centrifugation at 1300 rpm for 3 min and removal of supernatant, 50 μL of anti-human IgG (H+L) Alexa Fluor 647 secondary antibody (Life technologies Inc.) was incubated with the cells at a final concentration of 10 μg/mL for 30 min at 4° C. away from direct light. Following washing and resuspension in 30 μL FACs buffer (BD BioSciences). Sample collection was performed on an Intellicyt HTFC system using ForeCyt software. Viable single cells were gated prior to analysis of binding using the green or red fixable live/dead dyes (Life Technologies Inc.) and forward/side scatter area and height parameters, respectively. Graphs were generated in GraphPad Prism version 5 using mean fluorescence intensity values.
Two in-house phage-derived antibodies with the same Fc region as the therapeutic antibodies were used as controls: G11 (HC SEQ ID NO:176, LC SEQ ID NO:177), a non-cyno cross-reactive, agonistic antibody was used as a positive control and CD3B94 (HC-SEQ ID NO:178, LC—SEQ ID NO:179) a non-binder/non-agonistic antibody was used to assess non-specific binding. The commercial SP34 antibody was not used as a comparator in this assay since it is a mouse antibody and the use of a different secondary detection reagent would have prohibited direct comparison with the variants tested.

[5] = molecular target: T2, chimpanzee PSMA extracellular domain …; assay: hit from CIS-display panning and ELISA screen on PSMA of this species (column Antigen species)

Binder | binding result [1] | LNCaP cells IC50 (nM), cytotoxicity of FN3 domain-drug conjugate [2] [nM] | MDA-PCA-2B cells IC50 (nM), cytotoxicity of FN3 domain-drug conjugate [2] [nM] | VCAP cells IC50 (nM), cytotoxicity of FN3 domain-drug conjugate [2] [nM] | LNCaP IC50 (nM), cytotoxicity of the FN3 domain-vcMMAF conjugate (CellTiter-Glo) [3] [nM] | binding result [4] | binding result [5]
B1 | binds | 22.6 | 151 | 401 | 22.6 |  | 
B2 |  |  |  |  |  | no binding | 
B3 |  |  |  |  |  | no binding | 
B4 |  | 9.3 | 107 | 231 | 20.7 |  | binds
B5 |  |  |  |  | 0.5 |  | binds
B6 |  |  |  |  | 1.4 |  | binds
B7 |  | 0.4 | 4.6 | 15.2 | 0.4 |  | binds
B8 | binds |  |  |  | 4.6 |  | 
B9 | binds |  |  |  | 0.9 |  | 
B10 | binds |  |  |  | 5.8 |  | 
B11 | binds |  |  |  | 5.4 |  | 
B12 | binds |  |  |  | 0.8 |  | 
B13 | binds |  |  |  | 8.8 |  | 
